Results on 1 molecule are retold here after patent US5217864, “Replication initiator protein complex and methods of use thereof” (The Rockefeller University).

For this data set, the target named is OTF1/NFIII (UniProt P14859 P14859:1-743). Briefly: EMSA; data not shown.
Sequence of OTF1/NFIII (P14859 whole entry, one chain of several): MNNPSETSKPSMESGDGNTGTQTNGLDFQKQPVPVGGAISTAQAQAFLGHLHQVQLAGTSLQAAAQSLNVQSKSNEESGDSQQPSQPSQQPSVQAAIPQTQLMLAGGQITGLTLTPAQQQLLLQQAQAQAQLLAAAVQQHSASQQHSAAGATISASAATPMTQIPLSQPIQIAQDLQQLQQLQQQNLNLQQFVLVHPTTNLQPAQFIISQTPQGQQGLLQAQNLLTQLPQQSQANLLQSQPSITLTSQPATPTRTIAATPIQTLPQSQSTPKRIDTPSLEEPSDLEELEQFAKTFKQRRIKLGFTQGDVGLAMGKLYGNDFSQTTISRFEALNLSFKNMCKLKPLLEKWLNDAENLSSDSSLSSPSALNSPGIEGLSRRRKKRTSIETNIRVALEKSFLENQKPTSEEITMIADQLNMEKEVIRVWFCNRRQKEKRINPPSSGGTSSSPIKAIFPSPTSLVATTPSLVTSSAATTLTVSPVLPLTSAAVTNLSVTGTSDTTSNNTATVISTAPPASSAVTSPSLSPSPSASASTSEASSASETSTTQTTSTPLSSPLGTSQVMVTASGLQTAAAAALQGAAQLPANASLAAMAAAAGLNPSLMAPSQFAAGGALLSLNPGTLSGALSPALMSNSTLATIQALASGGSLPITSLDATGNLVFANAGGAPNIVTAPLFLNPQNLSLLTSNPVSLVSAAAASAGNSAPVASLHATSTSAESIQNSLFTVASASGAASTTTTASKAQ

B1: OTF1 site at 5' end of 280 bp fragment (dsDNA)
DNA 1: ATTTTCAT
DNA 2: ATGAAAAT
In the case of B1, the binding result is recorded as “binds”.
